The values below come from publication PMC10303687 (2023).

In general, Kd refers to the concentration at which binding is half-saturated. A lower Kd goes with tighter binding.

Holding throughout (test): stopped flow koff/kon 10 C
Assay [1] has as its target T1, p53_Dr (Danio rerio (Zebrafish) (Brachydanio …, UniProt P79734)).
T1 chain: DSQEFAELWEKNL

In assay [2] the target is T2, p63_Dr (zebrafish, UniProt E9QG65).
T2 chain: GQDVLNQLLEML

In assay [3] the target is T3, p73_Dr (zebrafish, UniProt A0A8M2BER5).
T3 chain: EGPTFEHLWSTL

For assay [4], the target named is T4, p53_Gg (Gallus gallus (Chicken), UniProt P10360).
T4 chain: EPTEVFMDLWSML

B1: MDM2_Dr (protein)
chain: SQISKVDNEKLVRPKVQLKSLLEDAGADKDVFTMKEVMFYLGKYIMSKELYDKQQQHIVHCGEDPLGAVLGVKSFSVKEPRALFALINRNLVTVK
For B1, the figures for the dissociation constant (Kd) in assay [1], in assay [2] and in assay [3] were 1900 nM, 130000 nM and 120 nM, respectively.

B2: MDM2_Gg (protein)
chain: SPVSASEQEALVKPKPLLLKLLKLAGAEKDTFTMKEVIFYLGQYIMSKQLYDEKEQHIVHCANDLLGDLFGVTSFSVKEHRRIYSMISRNLIAIN
In the case of B2, binding in assay [4] was put at a Kd of 90 nM.
